IntAct's records for PubMed 16888623

B1: Mucin-1 (Homo sapiens), P15941-12 (parent)
chain: MTPGTQSPFFLLLLLTVLTATTAPKPATVVTGSGHASSTPGGEKETSATQRSSVPSSTEKNAFNSSLEDPSTDYYQELQRDISEMAVCQCRRKNYGQLDIFPARDTYHPMSEYPTYHTHGRYVPPSSTDRSPYEKVSAGNGGSSLSYTNPAVAATSANL

Variants of: B1
Conditions: with abl1_human ABL1, P00519
Sequence of abl1_human ABL1, P00519 (P00519 whole entry): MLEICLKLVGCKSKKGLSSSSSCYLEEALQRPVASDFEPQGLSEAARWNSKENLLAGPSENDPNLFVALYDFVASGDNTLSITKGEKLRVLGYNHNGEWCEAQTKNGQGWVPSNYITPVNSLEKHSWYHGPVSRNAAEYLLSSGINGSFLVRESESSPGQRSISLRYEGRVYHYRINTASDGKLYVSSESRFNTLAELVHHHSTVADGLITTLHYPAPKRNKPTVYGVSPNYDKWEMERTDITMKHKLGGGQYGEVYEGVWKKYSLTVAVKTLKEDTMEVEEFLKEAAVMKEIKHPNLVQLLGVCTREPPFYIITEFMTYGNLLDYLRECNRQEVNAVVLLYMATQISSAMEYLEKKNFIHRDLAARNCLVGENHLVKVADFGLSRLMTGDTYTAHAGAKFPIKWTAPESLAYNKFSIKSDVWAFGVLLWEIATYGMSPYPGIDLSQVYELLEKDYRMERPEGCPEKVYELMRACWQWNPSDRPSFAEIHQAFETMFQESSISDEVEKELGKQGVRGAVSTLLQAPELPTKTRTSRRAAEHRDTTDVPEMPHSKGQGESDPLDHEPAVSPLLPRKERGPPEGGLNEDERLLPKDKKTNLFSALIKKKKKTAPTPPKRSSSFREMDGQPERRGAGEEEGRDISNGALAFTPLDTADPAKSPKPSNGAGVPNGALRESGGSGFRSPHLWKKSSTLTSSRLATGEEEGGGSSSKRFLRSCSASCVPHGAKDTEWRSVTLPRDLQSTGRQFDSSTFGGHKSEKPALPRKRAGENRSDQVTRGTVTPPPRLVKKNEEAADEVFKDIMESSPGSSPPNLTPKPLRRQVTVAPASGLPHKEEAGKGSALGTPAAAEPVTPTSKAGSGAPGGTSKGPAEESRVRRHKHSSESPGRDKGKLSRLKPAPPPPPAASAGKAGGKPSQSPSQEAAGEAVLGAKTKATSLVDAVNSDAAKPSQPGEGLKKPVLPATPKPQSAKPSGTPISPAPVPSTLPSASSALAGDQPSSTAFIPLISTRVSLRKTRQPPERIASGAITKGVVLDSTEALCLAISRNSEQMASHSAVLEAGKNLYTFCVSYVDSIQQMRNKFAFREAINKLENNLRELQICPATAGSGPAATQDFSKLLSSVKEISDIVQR

effect of a mutation on the interaction	Variant
disrupting interaction	MTPGTQSPFFLLLLLTVLTATTAPKPATVVTGSGHASSTPGGEKETSATQRSSVPSSTEKNAFNSSLEDPSTDYYQELQRDISEMAVCQCRRKNYGQLDIFPARDTYHPMSEYPTYHTHGRYVPPSSTDRSPYEKVSAGNGGSSLSFTNPAVAATSANL [Y147F]
